This is an account of results in patent publication US20180215825A1 (BEIGENE, published 2018).

Assay [1] deals with T1, human C1q (human, UniProt P02745 23-245; P02746 28-253; P02747 29-245).
T1 construct: Bought (Cat. No. A400, Quidel); also called complement component C1q
Briefly: ELISA: antibody coated on the plate at the x-axis concentration, human C1q added (2 µg/mL), bound C1q detected with an anti-C1q mAb. Here is the method: The ELISA-based C1q binding assay was done by conventional ELISA method with minor modification. […] After blocking and washing, the wells were incubated with 2 μg/mL of human C1q (Cat. No. A400, Quidel, San Diego, USA) at room temperature for 2 hours.

Assay [2] addresses T2, human FcγRIIIAV158 expressed on cells (human, UniProt P08637 17-254).
T2 construct: whole, on cells; Co-expressed with FcRγ subunit; on HEK293 cells in the FACS assays, on NK92MI/CD16V cells in the ADCC assay; also called CD16 (V158 allele)
Put plainly: FACS, 10 µg/mL mAb as immune complex with biotin-PD-L1/His and neutravidin on FcγR-expressing HEK293 cells. An excerpt: Such bindings are thought to be more relevant under physiological condition, as the binding strength between monomeric γFc and most of the FcγRs is very weak. Human immune system also takes advantage of this mechanism to avoid non-specific activation of FcγRs by monomeric IgG which are present at high levels in serum.

In assay [3] the target is T3, human FcγRI expressed on HEK293 cells (human, UniProt P12314 16-374).
T3 construct: whole, on cells; Co-expressed with FcRγ subunit
T3 sequence (P12314 16-374): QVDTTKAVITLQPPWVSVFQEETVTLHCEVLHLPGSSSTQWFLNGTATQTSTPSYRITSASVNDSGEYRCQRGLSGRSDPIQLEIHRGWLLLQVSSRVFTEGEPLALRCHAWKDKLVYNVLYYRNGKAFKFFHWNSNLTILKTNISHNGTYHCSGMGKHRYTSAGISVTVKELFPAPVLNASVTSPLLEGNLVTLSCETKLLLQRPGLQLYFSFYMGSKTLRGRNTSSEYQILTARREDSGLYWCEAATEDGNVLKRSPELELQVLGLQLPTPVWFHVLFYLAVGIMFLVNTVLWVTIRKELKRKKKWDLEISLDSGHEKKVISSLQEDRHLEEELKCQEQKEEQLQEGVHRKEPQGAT
Briefly: FACS, monomeric mAb on FcγR-expressing HEK293 cells. How it is done:
(§1) Bindings of humanized anti-PD-L1 in various IgG1 formats (wt, IgG1mc, IgG1mf, SEQ. NO. 27-29) to FcγRs were also determined by flow cytometry. In brief, a series of stable HEK293 transfectants expressing human FcγRs were established. These stable cell lines expressed FcγRI, FcγRIIAH131, FcγRIIAR131, FcγRIIB, FcγRIIIAF158 or FcγRIIIAV158, respectively. Multi-subunit FcγRs (i.e., FcγRI and FcγRIIIA) were co-expressed with FcRγ subunit.

Assay [4] deals with T4, human FcγRIIAR131 expressed on HEK293 cells (human, UniProt P12318 34-317).
T4 construct: whole, on cells
T4 sequence (looked up): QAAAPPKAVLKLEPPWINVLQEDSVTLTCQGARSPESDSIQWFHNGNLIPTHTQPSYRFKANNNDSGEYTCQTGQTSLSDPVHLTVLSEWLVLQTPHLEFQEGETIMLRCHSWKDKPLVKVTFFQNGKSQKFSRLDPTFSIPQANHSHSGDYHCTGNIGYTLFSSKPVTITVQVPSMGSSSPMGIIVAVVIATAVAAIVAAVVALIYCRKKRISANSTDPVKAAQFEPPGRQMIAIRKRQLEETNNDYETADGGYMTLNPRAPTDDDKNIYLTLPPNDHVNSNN
Described as above. How it is done: as §1

Assay [5] has as its target T5, human FcγRIIB expressed on HEK293 cells (human, UniProt P31994 43-310).
T5 construct: whole, on cells
T5 sequence (looked up): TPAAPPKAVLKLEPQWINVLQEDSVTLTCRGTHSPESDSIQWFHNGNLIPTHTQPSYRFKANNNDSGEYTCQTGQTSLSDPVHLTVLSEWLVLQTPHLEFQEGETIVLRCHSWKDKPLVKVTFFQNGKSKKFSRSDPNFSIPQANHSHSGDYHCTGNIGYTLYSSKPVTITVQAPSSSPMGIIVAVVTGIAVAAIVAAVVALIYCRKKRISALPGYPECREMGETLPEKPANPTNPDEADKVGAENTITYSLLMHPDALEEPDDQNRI
The description is as above. How it is done:
as §1

In assay [6] the target is T6, human FcγRIIAH131 expressed on HEK293 cells (human, UniProt P12318 34-317).
T6 construct: whole, on cells
T6 sequence (looked up): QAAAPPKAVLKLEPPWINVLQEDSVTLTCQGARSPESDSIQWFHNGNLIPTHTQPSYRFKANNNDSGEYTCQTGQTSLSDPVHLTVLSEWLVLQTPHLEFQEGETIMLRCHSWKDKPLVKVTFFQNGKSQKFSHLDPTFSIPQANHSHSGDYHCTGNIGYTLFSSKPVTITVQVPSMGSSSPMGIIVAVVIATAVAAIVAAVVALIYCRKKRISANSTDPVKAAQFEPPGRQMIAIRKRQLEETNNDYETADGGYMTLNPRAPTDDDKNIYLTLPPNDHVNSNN
The description is as above. How it is done: as §1

Assay [7] has as its target T7, human FcγRIIIAF158 expressed on HEK293 cells (human, UniProt P08637 17-254).
T7 construct: whole, on cells; Co-expressed with FcRγ subunit
The description is as above. How it is done: as §1

Assay [8] deals with T2, human FcγRIIIAV158 expressed on cells. The description is as above. How it is done: as §1
Assay [9] addresses T8, human PD-L1-ECD/His (human, UniProt Q9NZQ7 19-238).
T8 construct: Expressed in 293-F cells; also called PD-L1/His; human PD-L1/His
Briefly: ELISA on coated human PD-L1/His, anti-human Fc-HRP; x-axis printed as 'Ag concentration', mAb concentration according to paragraph 44 [A]. How it is done:
The monkey PD-L1/His and murine PD-L1/His were expressed and purified in a similar way to the human PD-L1/His as described earlier. […] The synthesized full length mAb was named as Y1-IgG1mc. The ELISA assay was performed essentially in the same way as described in the previous section. Briefly, 200 ng of PD-L1 protein was coated on each well of Nunc MaxiSorp ELISA plate (Cat. No. 442404, Nunc, Thermo Fisher). After washing and blocking, indicated concentrations of anti-PD-L1 mAbs were added and incubated at room temperature for 1 hour. After washing, the bound anti-PD-L1 mAbs were detected using a HRP-conjugated goat anti-human Fc antibody (Cat. No. A0170, Sigma).

Assay [10] concerns the target T9, human PD-L1, full length, expressed on cells (human, UniProt Q9NZQ7 19-290).
T9 construct: also called HEK293/PD-L1 cells; HEK293/OS8/PD-L1 cells
Put plainly: FACS on HEK293/PD-L1 cells. How it is done: FACS binding analysis was performed as described in previous sections.

T9 sequence (Q9NZQ7 19-290 limits assumed): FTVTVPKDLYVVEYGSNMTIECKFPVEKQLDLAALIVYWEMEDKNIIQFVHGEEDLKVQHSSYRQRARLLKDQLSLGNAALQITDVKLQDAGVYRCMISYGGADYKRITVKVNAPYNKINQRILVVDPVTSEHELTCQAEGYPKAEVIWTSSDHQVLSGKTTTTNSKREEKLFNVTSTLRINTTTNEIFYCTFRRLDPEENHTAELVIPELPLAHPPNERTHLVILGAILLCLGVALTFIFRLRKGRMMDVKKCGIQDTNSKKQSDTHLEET
T7 sequence (P08637 17-254): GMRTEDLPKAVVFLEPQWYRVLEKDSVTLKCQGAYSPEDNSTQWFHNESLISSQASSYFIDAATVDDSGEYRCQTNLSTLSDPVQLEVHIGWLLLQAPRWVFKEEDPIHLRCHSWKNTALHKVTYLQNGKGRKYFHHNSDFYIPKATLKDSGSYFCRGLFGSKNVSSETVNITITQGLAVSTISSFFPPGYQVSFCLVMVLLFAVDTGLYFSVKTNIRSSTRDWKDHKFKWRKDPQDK
T2 sequence (P08637 17-254 F176V limits assumed): as the sequence (P08637 17-254) above, with F160V counted along it
T1 sequence (P02745 23-245, chain 1 of 3): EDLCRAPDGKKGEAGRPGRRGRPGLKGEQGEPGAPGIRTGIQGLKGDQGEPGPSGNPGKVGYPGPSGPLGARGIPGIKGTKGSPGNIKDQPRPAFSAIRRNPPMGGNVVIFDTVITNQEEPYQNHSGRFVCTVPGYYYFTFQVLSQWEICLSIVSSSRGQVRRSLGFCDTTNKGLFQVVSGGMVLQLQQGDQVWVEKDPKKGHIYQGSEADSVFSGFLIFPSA
T1 sequence (P02746 28-253, chain 2 of 3): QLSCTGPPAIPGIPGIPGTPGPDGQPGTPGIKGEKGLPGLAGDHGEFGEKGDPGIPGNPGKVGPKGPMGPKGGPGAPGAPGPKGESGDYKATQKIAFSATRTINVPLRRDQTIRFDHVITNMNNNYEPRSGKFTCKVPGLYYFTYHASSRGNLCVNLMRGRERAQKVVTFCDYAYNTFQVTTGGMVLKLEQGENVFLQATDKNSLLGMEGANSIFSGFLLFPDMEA
T1 sequence (P02747 29-245, chain 3 of 3): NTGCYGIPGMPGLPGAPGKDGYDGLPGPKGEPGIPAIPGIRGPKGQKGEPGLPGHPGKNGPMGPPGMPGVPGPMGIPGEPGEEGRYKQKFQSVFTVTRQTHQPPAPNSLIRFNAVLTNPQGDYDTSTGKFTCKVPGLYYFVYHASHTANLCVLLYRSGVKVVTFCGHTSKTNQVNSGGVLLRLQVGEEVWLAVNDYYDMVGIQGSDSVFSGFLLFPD
T8 sequence (Q9NZQ7 19-238): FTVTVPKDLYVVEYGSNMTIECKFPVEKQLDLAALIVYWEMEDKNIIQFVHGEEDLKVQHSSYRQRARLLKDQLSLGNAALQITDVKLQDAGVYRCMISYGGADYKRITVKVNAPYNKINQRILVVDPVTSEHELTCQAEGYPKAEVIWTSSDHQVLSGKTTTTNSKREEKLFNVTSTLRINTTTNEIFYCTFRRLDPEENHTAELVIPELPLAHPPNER

B1: hu333-4A2-IgG1wt (antibody)
heavy: not shown
VL: DIQMTQSPSSLSASVGDRVTITCKASQDVGIVVAWYQQKPGKAPKLLIYWASIRHTGVPSRFSGSGSGTEFTLTISSLQPDDFATYYCQQYSNYPLYTFGQGTKVEIK
notes: light chain constant region (kappa) not tied to an entry for this form
Regarding B1, the binding result in assay [1] is “binds”. The MFI in [2] was determined as 309 MFI; in [3], 1170 MFI; in [4], 15.1 MFI; in [5] it was 19 MFI; in assay [6] it was 40.5 MFI; in assay [7], 29.4 MFI. This molecule also returned an MFI in [8] of 91.7 MFI.

B2: hu333-4B2-IgG1mc (antibody)
heavy: EVQLVESGGGLVQPGGSLRLSCAVSGFSLTSYGVHWVRQAPGKGLEWVAVIWAGGSTNYADSVKGRFTISKDTSKNTVYLQMNSLRAEDTAVYYCAKPYGTSAMDYWGQGTLVTVSSASTKGPSVFPLAPSSKSTSGGTAALGCLVKDYFPEPVTVSWNSGALTSGVHTFPAVLQSSGLYSLSSVVTVPSSSLGTQTYICNVNHKPSNTKVDKKVEPKSCDKTHTCPPCPAPPAAAPSVFLFPPKPKDTLMISRTPEVTCVVVDVSHEDPEVKFNWYVDGVEVHNAKTKPREEQYNSTYRVVSVLTVLHQDWLNGKEYKCKVSNKALAAPIEKTISKAKGQPREPQVYTLPPSRDELTKNQVSLTCLVKGFYPSDIAVEWESNGQPENNYKTTPPVLDSDGSFFLYSKLTVDKSRWQQGNVFSCSVMHEALHNHYTQKSLSLSPGK
light: DIQMTQSPSSLSASVGDRVTITCKASQDVGIVVAWYQQKPGKAPKLLIYWASIRHTGVPSRFSGSGSGTEFTLTISSLQPDDFATYYCQQYSNYPLYTFGQGTKVEIKRTVAAPSVFIFPPSDEQLKSGTASVVCLLNNFYPREAKVQWKVDNALQSGNSQESVTEQDSKDSTYSLSSTLTLSKADYEKHKVYACEVTHQGLSSPVTKSFNRGEC
B2: the binding result in [1] is reported as “no binding (tested: about 20 µg/ml (coating concentration))”. For the same molecule, the MFI in assay [2] was found to be 4.89 MFI; in assay [3], 4.78 MFI; in assay [4], 3.64 MFI; in assay [5], 4.49 MFI; in [6], 6.16 MFI; in assay [7] it was 5.42 MFI. Also, the MFI in [8] worked out at 4.14 MFI. Besides, the “EC50 (read off the curve)” value in assay [9] is around 0.03 µg/mL. For the same molecule, a half-maximal effect in [10] (EC50) was put at 0.092 µg/mL. In addition, the “Top MFI” value in [10] was 1390 MFI.

B3: hu333-4A2-IgG1mc (antibody)
heavy: EVQLVESGGGLVQPGGSLRLSCAVSGFSLTSYGVHWVRQAPGKGLEWVAVIWAGGSTNYVDSVKGRFTISKDNAKNTVYLQMNSLRAEDTAVYYCAKPYGTSAMDYWGQGTLVTVSSASTKGPSVFPLAPSSKSTSGGTAALGCLVKDYFPEPVTVSWNSGALTSGVHTFPAVLQSSGLYSLSSVVTVPSSSLGTQTYICNVNHKPSNTKVDKKVEPKSCDKTHTCPPCPAPPAAAPSVFLFPPKPKDTLMISRTPEVTCVVVDVSHEDPEVKFNWYVDGVEVHNAKTKPREEQYNSTYRVVSVLTVLHQDWLNGKEYKCKVSNKALAAPIEKTISKAKGQPREPQVYTLPPSRDELTKNQVSLTCLVKGFYPSDIAVEWESNGQPENNYKTTPPVLDSDGSFFLYSKLTVDKSRWQQGNVFSCSVMHEALHNHYTQKSLSLSPGK
light: DIQMTQSPSSLSASVGDRVTITCKASQDVGIVVAWYQQKPGKAPKLLIYWASIRHTGVPSRFSGSGSGTEFTLTISSLQPDDFATYYCQQYSNYPLYTFGQGTKVEIKRTVAAPSVFIFPPSDEQLKSGTASVVCLLNNFYPREAKVQWKVDNALQSGNSQESVTEQDSKDSTYSLSSTLTLSKADYEKHKVYACEVTHQGLSSPVTKSFNRGEC
As to B3, the binding result in assay [1] was “no binding (tested: about 20 µg/ml (coating concentration))”. The MFI in assay [2] was found to be 5.43 MFI; in assay [3], 4.29 MFI; in assay [4], 3.8 MFI; in assay [5], 3.71 MFI; in [6], 5.78 MFI; in assay [7], 5.2 MFI. The molecule further displayed an MFI in assay [8] of 3.87 MFI. Moreover, in assay [9], the “EC50 (read off the curve)” value was around 0.03 µg/mL. Also, the EC50 in assay [10] amounted to 0.098 µg/mL. The “Top MFI” value in assay [10] stood at 1360 MFI.

B4: hu333-4B2-IgG1mf (antibody)
heavy: EVQLVESGGGLVQPGGSLRLSCAVSGFSLTSYGVHWVRQAPGKGLEWVAVIWAGGSTNYADSVKGRFTISKDTSKNTVYLQMNSLRAEDTAVYYCAKPYGTSAMDYWGQGTLVTVSSASTKGPSVFPLAPSSKSTSGGTAALGCLVKDYFPEPVTVSWNSGALTSGVHTFPAVLQSSGLYSLSSVVTVPSSSLGTQTYICNVNHKPSNTKVDKKVEPKSCDKTHTCPPCPAPPAAGPSVFLFPPKPKDTLMISRTPEVTCVVVDVSHEDPEVKFNWYVDGVEVHNAKTKPREEQYNSTYRVVSVLTVLHQDWLNGKEYKCKVSNKALAAPIEKTISKAKGQPREPQVYTLPPSRDELTKNQVSLTCLVKGFYPSDIAVEWESNGQPENNYKTTPPVLDSDGSFFLYSKLTVDKSRWQQGNVFSCSVMHEALHNHYTQKSLSLSPGK
light: DIQMTQSPSSLSASVGDRVTITCKASQDVGIVVAWYQQKPGKAPKLLIYWASIRHTGVPSRFSGSGSGTEFTLTISSLQPDDFATYYCQQYSNYPLYTFGQGTKVEIKRTVAAPSVFIFPPSDEQLKSGTASVVCLLNNFYPREAKVQWKVDNALQSGNSQESVTEQDSKDSTYSLSSTLTLSKADYEKHKVYACEVTHQGLSSPVTKSFNRGEC
With B4, the binding result in assay [1] is listed as “no binding (tested: about 20 µg/ml (coating concentration))”. For the same molecule, the MFI came out at 4.83 MFI in [2]; 4.56 MFI in assay [3]; 3.99 MFI in assay [4]; 3.73 MFI in assay [5]; 6.12 MFI in assay [6]; 5.09 MFI in assay [7]. Also, in assay [8], the MFI was 3.91 MFI. Further, the “EC50 (read off the curve)” value in assay [9] was around 0.03 µg/mL. For the same molecule, the midpoint of the response in assay [10], the EC50, lay at 0.102 µg/mL. The “Top MFI” value in assay [10] is 1340 MFI.
